Results on two molecules are retold here after article PMC5662751, “Post-transcriptional gene silencing mediated by microRNAs is controlled by nucleoplasmic Sfpq”.

The target of the data set is T1, Sfpq wild-type (human, UniProt P23246 1-707).
T1 sequence: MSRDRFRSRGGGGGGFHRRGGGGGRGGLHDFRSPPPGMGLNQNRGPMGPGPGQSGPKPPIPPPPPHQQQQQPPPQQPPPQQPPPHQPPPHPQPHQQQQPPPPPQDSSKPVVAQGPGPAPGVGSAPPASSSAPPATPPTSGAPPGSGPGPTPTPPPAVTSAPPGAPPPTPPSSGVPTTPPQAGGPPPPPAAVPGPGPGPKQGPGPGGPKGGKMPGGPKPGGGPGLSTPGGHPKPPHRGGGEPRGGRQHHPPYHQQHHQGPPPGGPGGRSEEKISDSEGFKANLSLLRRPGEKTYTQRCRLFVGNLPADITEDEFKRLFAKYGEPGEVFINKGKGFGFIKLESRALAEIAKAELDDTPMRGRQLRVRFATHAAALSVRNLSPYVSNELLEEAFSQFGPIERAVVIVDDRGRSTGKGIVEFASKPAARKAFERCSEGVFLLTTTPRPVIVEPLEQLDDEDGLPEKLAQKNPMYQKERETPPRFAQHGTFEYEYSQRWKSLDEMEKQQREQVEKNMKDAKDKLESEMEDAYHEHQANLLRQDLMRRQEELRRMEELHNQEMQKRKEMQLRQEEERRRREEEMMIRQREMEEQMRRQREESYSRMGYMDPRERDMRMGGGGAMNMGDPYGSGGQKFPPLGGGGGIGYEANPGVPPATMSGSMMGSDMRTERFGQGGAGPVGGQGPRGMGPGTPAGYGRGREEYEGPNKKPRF
In words: UV crosslinking; 100 nM Sfpq; EMSA: 75 mM Hepes pH 7.9, 150 mM NaCl, 75 mM KCl, 0.1 mM EDTA, 5 mM DTT, 5 mM PMSF, 15% glycerol, 15 min, room temperature; AFM: 120 mM NaCl, 24 mM Tris-HCl pH. To be noted: protein: recombinant, tags: 6xHis (pET15b), chain copies: 2, label: 32P. Background: In EMSA bound probe runs differently from free probe, usually more slowly.

For the molecule CUGUACUGUA (ssRNA) [CUGU/CUGUA x2 oligo], the binding result (two copies of CUGUA (contains CUGU)) is “binds”. On to CCCCGCCCCG (ssRNA) [Sfpq negative RNA oligo (CCCCG x2)], for which the binding result is “no binding”.
